Laboratory results reported in PMC12234471, “The apicoplast localized isocitrate dehydrogenase is needed for de novo fatty acid synthesis in the apicoplast of Toxoplasma gondii” (Frontiers in Cellular and Infection Microbiology, 2025).

Substrate: O=C(O)C[C@H](C(=O)O)[C@@H](O)C(=O)O
Assay: purified protein
Assay type: biochemical, Toxoplasma gondii
Conditions: NADP+ co-substrate; Solarbio ICDHm kit

B1: TgICDH1 (Toxoplasma gondii) (protein)
chain: QRIKVDQPVVEMDGDEMARVIWAMIKEKLILPYLDIPLMYYDLSIQHRDKTDDQVTIDAALAIKRHGVGVKCATITPDEQRVKEFNLKKMWKSPNATIRNTLDGTIFRAPILMKNVPRLVPSWTKPIIIGRHAHADQYKALDFTVDKPGRFVMSFIPADKSNPEVHEVYEFKGGGVALGMYNTDASIKGFAHSCFQYALDQKMPLYLSTKNTVLKKYDGRFKDIFQTIYEKEYKQKFEEAGLWYEHRLIDDMVAQAIKSSGGFVWACKNYDGDVQSDVVAQGYGSLGLMTSVLVCPDGKTIEAEAAHGTVTRHYRQYQKGIKTSTNPIASIYAWTRSLGHRAKLDNNQKLKEFVEALEDACVETVEAGFMTKDLALAIKGDKLTDRDYLCTEDFMDKLARVAERKLLERQIISKA
notes: truncation AA180-594 (leader peptide removed), cloned from RH cDNA in pET-sumo, His-tag resin purified from E. coli BL21
In the case of B1, the Km is reported as 160.7 µM.
